# B1: human CD166 (receptor)
# chain: WYTVNSAYGDTIIIPCRLDVPQNLMFGKWKYEKPDGSPVFIAFRSSTKKSVQYDDVPEYKDRLNLSENYTLSISNARISDEKRFVCMLVTEDNVFEAPTIVKVFKQPSKPEIVSKALFLETEQLKKLGDCISEDSYPDGNITWYRNGKVLHPLEGAVVIIFKKEMDPVTQLYTMTSTLEYKTTKADIQMPFTCSVTYYGPSGQKTIHSEQAVFDIYYPTEQVTIQVLPPKNAIKEGDNITLKCLGNGNPPPEEFLFYLPGQPEGIRSSNTYTLTDVRRNATGDYKCSLIDKKSMIASTAITVHYLDLSLNPSGEVTRQIGDALPVSCTISASRNATVVWMKDNIRLRSSPSFSSLHYQDAGNYVCETALQEVEGLKKRESLTLIVEGKPQIKMTKKTDPSGLSKTIICHVEGFPKPAIQWTITGSGSVINQTEESPYINGRYYSKIIISPEENVTLTCTAENQLERTVNSLNVSAISIPEHDEADEISDENREKVNDQA
# B2: CD166-M9_vk3a/HcB (antibody, V domains shown)
# VH: QITLKESGPTLVKPTQTLTLTCTFSGFSLSTYGMGVGWIRQPPGKALEWLANIWWSEDKHYSPSLKSRLTITKDTSKNQVVLTMTNMDPVDTATYYCVQIDYGNDYAFTYWGQGTLVTVSS
# VL: DIVMTQSPLSLPVTPGEPASISCRSSQSLLHSNGITYLYWYLQKPGQSPQLLIYQMSNRASGVPDRFSGSGSGTDFTLKISRVEAEDVGVYYCAQNLELPYTFGQGTKLEIK
# B3: CD166-M9_vK3b/HcC (antibody, V domains shown)
# VH: QITLKESGPTLVKPTQTLTLTCTFSGFSLSTYGMGVGWIRQPPGKALEWLANIWWSEDKHYSPSLKSRLTITKDTSKNQVVLTITNVDPVDTATYYCVQIDYGNDYAFTYWGQGTLVTVSS
# VL: DIVMTQSPLSLPVTPGEPASISCRSSQSLLHSNGITYLYWYLQKPGQSPQLLIYQMSNRASGVPDRFSSSGSGTDFTLKISRVEAEDVGVYYCAQNLELPYTFGQGTKLEIK
# B4: CD166-M9_vK3a/HcC (antibody, V domains shown)
# VH: QITLKESGPTLVKPTQTLTLTCTFSGFSLSTYGMGVGWIRQPPGKALEWLANIWWSEDKHYSPSLKSRLTITKDTSKNQVVLTITNVDPVDTATYYCVQIDYGNDYAFTYWGQGTLVTVSS
# VL: DIVMTQSPLSLPVTPGEPASISCRSSQSLLHSNGITYLYWYLQKPGQSPQLLIYQMSNRASGVPDRFSGSGSGTDFTLKISRVEAEDVGVYYCAQNLELPYTFGQGTKLEIK
# B5: CD166-M9_vK3b/HcB (antibody, V domains shown)
# VH: QITLKESGPTLVKPTQTLTLTCTFSGFSLSTYGMGVGWIRQPPGKALEWLANIWWSEDKHYSPSLKSRLTITKDTSKNQVVLTMTNMDPVDTATYYCVQIDYGNDYAFTYWGQGTLVTVSS
# VL: DIVMTQSPLSLPVTPGEPASISCRSSQSLLHSNGITYLYWYLQKPGQSPQLLIYQMSNRASGVPDRFSSSGSGTDFTLKISRVEAEDVGVYYCAQNLELPYTFGQGTKLEIK
# B6: CD166-M9_vK2/HcC (antibody, V domains shown)
# VH: QITLKESGPTLVKPTQTLTLTCTFSGFSLSTYGMGVGWIRQPPGKALEWLANIWWSEDKHYSPSLKSRLTITKDTSKNQVVLTITNVDPVDTATYYCVQIDYGNDYAFTYWGQGTLVTVSS
# VL: DIVMTQSPLSLPVTPGEPASISCRSSKSLLHSNGITYLYWYLQKPGQSPQLLIYQMSNLASGVPDRFSSSGSGTDFTLKISRVEAEDVGVYYCAQNLELPYTFGQGTKLEIK
# Target: CD166-M9_chimera
# Assay: FACS; apparent Kd
row,Binder,Kd [nM]
1,B1,1.12

# Target: T1, human CD166 protein (human, UniProt Q13740 28-526)
# T1 chain: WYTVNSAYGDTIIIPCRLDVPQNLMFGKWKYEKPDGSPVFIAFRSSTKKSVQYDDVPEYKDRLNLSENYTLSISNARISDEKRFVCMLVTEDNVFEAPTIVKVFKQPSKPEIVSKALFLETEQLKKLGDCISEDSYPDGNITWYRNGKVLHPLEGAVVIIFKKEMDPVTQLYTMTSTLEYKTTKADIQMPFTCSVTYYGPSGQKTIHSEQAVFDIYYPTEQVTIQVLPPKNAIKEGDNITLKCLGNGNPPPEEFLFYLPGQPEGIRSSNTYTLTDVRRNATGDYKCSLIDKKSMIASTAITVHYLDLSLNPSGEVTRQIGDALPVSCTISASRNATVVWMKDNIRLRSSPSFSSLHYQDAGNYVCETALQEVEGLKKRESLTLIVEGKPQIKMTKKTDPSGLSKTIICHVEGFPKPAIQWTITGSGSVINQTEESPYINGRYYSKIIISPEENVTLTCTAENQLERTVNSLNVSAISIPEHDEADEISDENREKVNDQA
# Assay: FACS; apparent Kd
row,Binder,Kd [nM]
1,B2,2.88
2,B3,3.19
3,B4,3.76
4,B5,2.61
5,B6,2.5
